Laboratory results: article PMC9478404

What was measured:
Experiment in all cases: ITC; DBD (500 μM) titrated into NRD (50 μM) at 19 °C; 150 mM NaCl, 20 mM Tris, 1 mM BME (pH 8); MicroCal VP-ITC; mean of three technical replicates
[1] = molecular target: B-Myb NRD^510–600 (C-terminal half of the NRD) (human) (UniProt P10244)
[2] = molecular target: B-Myb NRD^510–600 T538A (human) (UniProt P10244)
[3] = molecular target: B-Myb NRD^510–600 S577A (human) (UniProt P10244)
B-Myb NRD^510–600 S577A (human), sequence (P10244 510-600 S577A): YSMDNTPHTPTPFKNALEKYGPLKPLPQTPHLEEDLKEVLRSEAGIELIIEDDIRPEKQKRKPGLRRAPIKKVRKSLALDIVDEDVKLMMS

B-Myb NRD^510–600 (C-terminal half of the NRD) (human), sequence (P10244 510-600): as the sequence (P10244 510-600 S577A) above, with A68S counted along it
B-Myb NRD^510–600 T538A (human), sequence (P10244 510-600 T538A): as the sequence (P10244 510-600 S577A) above, with T29A, A68S counted along it

Kd [1]: 4.9 µM | Kd [2]: 6.5 µM | Kd [3]: 3.2 µM
Substance: B-Myb DNA-binding domain (B-Myb^34–183) (from UniProt P10244-1 34-183) (domain or fragment)
